{
  "source": "paper PMC3057995",
  "about": "“Potent Anti-Tumor Effect Generated by a Novel Human Papillomavirus (HPV) Antagonist Peptide Reactivating the pRb/E2F Pathway” (PLoS ONE, 2011)",
  "key": {"[1]": {"system": "SiHa cells", "method": "The 5-FAM labeled peptides were used to monitor the cell uptake and intracellular location of the peptide. SiHa cells were seeded on the coverslips in 12-well plates (1×10^5/well) and cultured overnight. The DMEM was replaced with a fresh medium, supplemented with 80 µM 5-FAM labeled peptide. Cells were washed three times with a PBS buffer after 8 h and 24 h of incubation, respectively, and then observed under a fluorescence microscope Leica DMI 6000B. Images were captured with Leica AF6500 software (Leica Mikrosysteme Vertrieb GmbH, Wetzlar, Germany)."}, "[2]": {"target": "T1, His-HPV16E7 fusion protein (human papillomavirus type 16, UniProt P03129 1-98)", "T1 construct": "source: E. coli BL21, extracted in denaturing conditions, purified (Ni-NTA agarose)", "T1 sequence (looked up)": "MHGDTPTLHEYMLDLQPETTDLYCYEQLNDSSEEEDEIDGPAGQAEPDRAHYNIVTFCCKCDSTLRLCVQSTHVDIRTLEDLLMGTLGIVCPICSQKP", "test": "ELISA"}},
  "note": "Bridge positions count the residues as written; N and C are the ends. Ends that are not written are not given here.",
  "data": [
    {"molecule": "O=C(O)c1ccc2c(c1)C(=O)OC21c2ccc(O)cc2Oc2cc(O)ccc21", "note": "[5-Fam]", "values": [
      {"measurement": "cell fluorescence (uptake control)", "setting": "[1]", "value": "did not show fluorescence"}
    ]},
    {"molecule": "positive phage clones displaying the peptide PKGLDWC", "values": [
      {"measurement": "inhibitory ratio of HPV16E7 mAb binding at 10^13 CFU/ml", "setting": "[2]", "value": "> 50", "unit": "%"}
    ]},
    {"molecule": "SACPKGLDWCGG (disulfide 3-10 (inferred), also called selected peptide; antagonist peptide; source: synthetic peptide (Chinese Peptide Company), HPLC purified)", "note": "[Pep-7]", "values": [
      {"measurement": "binding result", "setting": "[2]; both partners purified", "value": "binds"}
    ]}
  ]
}
